In patent publication US20150010920:

Target: EGFP-T/C1 (EGFP-E-III-F-172)

B1: protease type X (Sigma, St. Louis) (protein)
chain: ITGTSTVGVGRGVLGDQKNINTTYSTYYYLQDNTRGNGIFTYDAKYRTTLPGSLWADADNQFFASYDAPAVDAHYYAGVTYDYYKNVHNRLSYDGNNAAIRSSVHYSQGYNNAFWNGSQMVYGDGDGQTFIPLSGGIDVVAHELTHAVTDYTAGLIYQNESGAINEAISDIFGTLVEFYANKNPDWEIGEDVYTPGISGDSLRSMSDPAKYGDPDHYSKRYTGTQDNGGVHINSGIINKAAYLISQGGTHYGVSVVGIGRDKLGKIFYRALTQYLTPTSNFSQLRAAAVQSATDLYGSTSQEVASVKQAFDAVGVK
- optical change / cleavage (absorbance at 397 nm, SDS-PAGE, MALDI-MS): this sensor was not cleaved by thrombin and protease type X
